Experimental data from patent publication US20170037124A1 (Regeneron, published 2017).

T1: human ANGPTL8 expressed with C-terminal mouse IgG2a Fc tag (hANGPTL8-mFc; SEQ ID NO: 340) (human)
T1 construct: also called Angiopoietin-like protein 8
T1 chain: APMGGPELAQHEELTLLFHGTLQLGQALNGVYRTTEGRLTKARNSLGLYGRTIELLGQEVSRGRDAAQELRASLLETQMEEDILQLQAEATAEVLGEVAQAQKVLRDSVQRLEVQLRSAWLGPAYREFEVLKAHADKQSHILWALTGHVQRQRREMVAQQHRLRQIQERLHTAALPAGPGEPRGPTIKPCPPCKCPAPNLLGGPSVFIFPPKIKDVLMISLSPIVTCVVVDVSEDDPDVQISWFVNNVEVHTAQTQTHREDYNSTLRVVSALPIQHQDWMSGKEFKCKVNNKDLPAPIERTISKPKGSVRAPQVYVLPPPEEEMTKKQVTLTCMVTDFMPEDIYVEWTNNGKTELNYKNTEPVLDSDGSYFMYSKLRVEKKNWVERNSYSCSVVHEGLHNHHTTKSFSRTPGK

T2: monkey ANGPTL8 expressed with C-terminal mouse IgG2a Fc tag (MfANGPTL8-mFc; SEQ ID NO: 341) (cynomolgus monkey)
T2 construct: also called cynomolgus monkey ANGPTL8
T2 chain: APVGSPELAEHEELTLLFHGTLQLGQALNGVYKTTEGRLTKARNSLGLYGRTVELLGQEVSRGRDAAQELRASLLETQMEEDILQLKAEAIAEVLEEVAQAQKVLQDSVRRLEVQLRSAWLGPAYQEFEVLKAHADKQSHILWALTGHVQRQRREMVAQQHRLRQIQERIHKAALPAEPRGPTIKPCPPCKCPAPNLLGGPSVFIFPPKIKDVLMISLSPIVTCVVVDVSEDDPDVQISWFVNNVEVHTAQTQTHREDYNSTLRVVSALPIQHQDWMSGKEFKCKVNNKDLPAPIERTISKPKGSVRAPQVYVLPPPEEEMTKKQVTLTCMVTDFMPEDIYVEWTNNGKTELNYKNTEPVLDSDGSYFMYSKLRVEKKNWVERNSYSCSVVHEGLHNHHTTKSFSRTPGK

T3: peptide from the N-terminal coiled-coil region of human ANGPTL3 (hANGPTL3 peptide, SEQ ID NO: 338) (human)
T3 construct: also called hANGPTL3 shift peptide
T3 peptide: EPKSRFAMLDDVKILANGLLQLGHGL

T4: human ANGPTL8 peptide (hANGPTL8 peptide, SEQ ID NO: 337) (human)
T4 construct: also called N-terminal region ANGPTL8 peptide
T4 peptide: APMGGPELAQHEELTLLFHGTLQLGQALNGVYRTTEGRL

T5: peptide from the N-terminal coiled-coil region of human ANGPTL4 (hANGPTL4 peptide, SEQ ID NO: 339) (human)
T5 peptide: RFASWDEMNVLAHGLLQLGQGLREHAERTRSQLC

T6: linear peptide 1APMGGPELAQHEELT15 (SEQ ID NO: 348) (human)
T6 construct: Synthesized on a solid support (Pepscan array)
T6 peptide: APMGGPELAQHEELT


How the values were obtained:
[1] = molecular target: T1, human ANGPTL8 expressed with C-terminal …; test: BLI Octet, captured antigen, 100 nM mAb, 25C; background 0.03 nm
Protocol: (§1) Binding of ANGPTL8 antibodies to human and monkey ANGPTL8 proteins was investigated using Bio-layer Interferometry with an Octet HTX biosensor platform (ForteBio, A Division of Pall Life Sciences). All experiments were performed at 25° C. in 10 mM HEPES pH 7.4, 150 mM NaCl, 0.05% v/v Surfactant Tween-20, and 1 mg/ml BSA with the reaction multiwell plate agitated at 1000 rpm. Approximately 1.6 nm of human ANGPTL8 produced with a C-terminal mouse IgG2a Fc tag (hANGPTL8-mFc; SEQ ID NO: 340) or cynomolgus monkey ANGPTL8 produced with a C-terminal mouse IgG2a Fc tag (MfANGPTL8-mFc; SEQ ID NO: 341) was captured onto anti-mFc (AMC) Octet biosensors by submerging the sensors into wells containing 10 μg/mL of each protein for 4 minutes. Under the same conditions a negative control protein with the same mFc tag (hLDLR-mFc) was also coupled to the AMC sensor. All four sensors, […] and one blank, were then submerged into wells containing 100 nM of different ANGPTL8 monoclonal antibodies or an isotype control for 4 minutes.

[2] = molecular target: T1, human ANGPTL8 expressed with C-terminal …; test: BLI Octet, captured antigen, 100 nM mAb, 25C
Protocol: as §1

[3] = molecular target: T7, negative control protein with the same mFc tag (hLDLR-mFc) (human; mouse, UniProt P01130 22-788, limits assumed); test: BLI Octet, captured antigen, 100 nM mAb, 25C
T7 construct: also called Irrelevant control; not shown: mouse IgG2a Fc tag (same mFc tag as hANGPTL8-mFc)
Protocol: as §1

[4] = molecular target: T2, monkey ANGPTL8 expressed with …; test: BLI Octet, captured antigen, 100 nM mAb, 25C
Protocol: as §1

[5] = molecular target: T3, peptide from the N-terminal coiled-coil …; test: SPR, captured mAb, 500 nM peptide, 25C
Protocol: (§2) The assay utilized a format where ANGPTL8 antibodies were captured on the sensor surface and peptides were injected over the antibody surface. Peptides from the N-terminal coiled-coil region of human ANGPTL3 (hANGPTL3 peptide, SEQ ID NO: 338) and human ANGPTL4 (hANGPTL4 peptide, SEQ ID NO: 339) were also included as controls. Also included was a control antibody (H4H268P from US2011/0159015A1) that binds to the ANGPTL4 peptide and a negative isotype control antibody. All binding studies were performed in 10 mM HEPES pH 7.4, 150 mM NaCl, 3 mM EDTA, and 0.05% v/v Surfactant Tween-20 (HBS-ET running buffer) at 25° C. The HCA sensor surface was derivatized via amine coupling to a monoclonal mouse anti-human Fc antibody (GE, # BR-1008-39), and to this surface was captured approximately 1000 RU of each ANGPTL8 antibody or control antibody. Peptide stock solutions were diluted in HBS-ET running buffer to 500 nM and injected over the antibody-captured surfaces for 4 minutes at a flow rate of 30 μL/minute followed by the dissociation of bound peptide in HBS-ET running buffer for 10 minutes.
(§3) Dissociative half-lives (t½) were calculated from kd as: […]

[6] = molecular target: T4, human ANGPTL8 peptide (hANGPTL8 …); test: SPR, captured mAb, 500 nM peptide, 25C
Protocol: as §2, §3

[7] = molecular target: T5, peptide from the N-terminal coiled-coil …; test: SPR, captured mAb, 500 nM peptide, 25C
Protocol: as §2, §3

[8] = molecular target: T8, anti-mFc (AMC) Octet biosensor, blank; test: BLI Octet, blank AMC sensor, 100 nM mAb, 25C
T8 construct: Sensor without captured protein, used as blank; also called Blank AMC Sensor
Protocol: as §1

[9] = molecular target: T6, linear peptide 1APMGGPELAQHEELT15 (SEQ …); test: Pepscan peptide array ELISA, 1 µg/ml antibody
Protocol: The binding of antibody to each of the synthesized peptides was tested in a PEPSCAN-based ELISA. The peptide arrays were incubated with primary antibody solution (overnight at 4° C.). […] After washing, the peroxidase substrate 2,2′-azino-di-3-ethylbenzthiazoline sulfonate (ABTS) and 20 μl/ml of 3 percent H₂O₂ were added. After one hour, the color development was measured. The color development was quantified with a charge coupled device (CCD)—camera and an image processing system.

T7 sequence (P01130 22-788 limits assumed): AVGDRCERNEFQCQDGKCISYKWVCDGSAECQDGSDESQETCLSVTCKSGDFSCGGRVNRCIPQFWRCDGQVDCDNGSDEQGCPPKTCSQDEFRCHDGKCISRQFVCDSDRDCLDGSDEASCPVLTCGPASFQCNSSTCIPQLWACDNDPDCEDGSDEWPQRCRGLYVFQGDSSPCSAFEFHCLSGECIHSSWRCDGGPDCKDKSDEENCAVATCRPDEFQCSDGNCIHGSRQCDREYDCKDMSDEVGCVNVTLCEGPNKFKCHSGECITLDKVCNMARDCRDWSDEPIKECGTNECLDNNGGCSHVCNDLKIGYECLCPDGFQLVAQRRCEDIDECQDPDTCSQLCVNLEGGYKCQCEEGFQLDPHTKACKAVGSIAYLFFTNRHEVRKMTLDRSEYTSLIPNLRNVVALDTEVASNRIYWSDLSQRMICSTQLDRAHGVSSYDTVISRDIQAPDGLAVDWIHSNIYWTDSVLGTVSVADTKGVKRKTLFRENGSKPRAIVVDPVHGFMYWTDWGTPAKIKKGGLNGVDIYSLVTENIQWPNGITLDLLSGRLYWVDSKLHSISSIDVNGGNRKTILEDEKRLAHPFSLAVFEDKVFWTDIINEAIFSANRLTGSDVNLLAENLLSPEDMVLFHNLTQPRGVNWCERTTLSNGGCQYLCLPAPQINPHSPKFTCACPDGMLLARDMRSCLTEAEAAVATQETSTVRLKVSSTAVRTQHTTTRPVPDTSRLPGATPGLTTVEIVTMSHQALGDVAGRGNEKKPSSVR

Row | Binder | binding signal, fold above background [1] [fold] | mAb Binding Response (nm) [2] [nm] | mAb Binding Response (nm) [3] [nm] | mAb Binding Response (nm) [4] [nm] | 500 nM hANGPTL3 peptide Bound (RU) [5] [RU] | binding result [5] | 500 nM hANGPTL8 peptide Bound (RU) [6] [RU] | koff [6] [s⁻¹] | t½ [6] [h] | 500 nM hAngPTL4 peptide Bound (RU) [7] [RU] | binding result [7] | mAb Binding Response (nm) [8] [nm] | binding result [6] | binding result [9]
1 | H4H15321P (antibody, human IgG4, V domains shown, H4H prefix: human IgG4 Fc) VH: EVQLVESGGGLVQPGGSLRLSCAASGFTFSSYAMSWVRQAPGKGLEWVSAITGSGGRTYYADSVKGRFTISRDNAKNTLYLQMNSLRAEDTAVYYCAKNFPFDYWGQGTLVTVSS VL: not shown | ≥ 10 | 0.36 | 0.01 | 0.51 | 0 | no binding (tested: <9 RU at 500 nM peptide) | 61 | 8.29e-05 | 2.32 | 0 | no binding (tested: <9 RU at 500 nM peptide) | 0 | – | –
2 | H4H15362P2 (antibody, human IgG4, V domains shown, H4H prefix: human IgG4 Fc) VH: QVQLVESGGGVVQPGRSLRLSCAASGFTFSSYGMHWVRQAPGKGLEWVAVIWYDGSNKYYADSVKGRFTISRDNSKNTLYLQMNSLRAEDTAVYYCARDWVRFLEWFPHFDYWGQGTLVTVSS VL: not shown | ≥ 10 | 0.39 | – | 0.36 | 0 | no binding (tested: <9 RU at 500 nM peptide) | 0 | – | – | 0 | no binding (tested: <9 RU at 500 nM peptide) | 0.01 | no binding (tested: <9 RU at 500 nM peptide) | –
3 | H4H15330P (antibody, human IgG4, V domains shown, H4H prefix: human IgG4 Fc) VH: QVQLVESGGGLVKPGGSLRLSCAASGFTFSDYYMSWIRQAPGKGLEWISHISGSGRTTHYADSMKGRFTISRDNAKNSLYLQMNSLRAEDTAVYYCVREGGFNWNYEGTFDIWGQGTMVTVSS VL: DIVMTQTPLSSPVTLGQPASISCRSSQSLLHSDQNTYLSWLHQRPGQPPRLLIYKISNRFSGVPDRFSGSGAGTDFTLKISRVEAEDVGIYYCMQGTQFPLTFGGGTKVEIK | ≥ 10 | 0.34 | 0.02 | 0.39 | -1 | – | 0 | – | – | 0 | no binding (tested: <9 RU at 500 nM peptide) | 0.01 | no binding (tested: <9 RU at 500 nM peptide) | –
4 | H4H15367P2 (antibody, human IgG4, V domains shown, H4H prefix: human IgG4 Fc) VH: QVQLVESGGGVVQPGRSVRLSCGASGFTFKYYGMHWVRQAPGKGLEWVAVIWYDGRNKFYADSVKGRFTISRDNSKNTVNLEMNNLRAEDTAIYYCARDGGTADGDYFDYWGQGTLVTVSS VL: not shown | ≥ 10 | 0.32 | – | 0.33 | 0 | no binding (tested: <9 RU at 500 nM peptide) | 43 | 9.82e-05 | 1.97 | 0 | no binding (tested: <9 RU at 500 nM peptide) | 0 | – | binds
5 | H4H15334P (antibody, human IgG4, V domains shown, H4H prefix: human IgG4 Fc) VH: QVQLQESGPGLVKPSQTLSLTCTVSGGSINSGGYYWNWIRQHPGKGLEWIGYIYYSGSTYFNPSLKSRVTISIDTSKNQFSLKLSSVTAADTAVYYCAREGIYAFDYWGQGTLVTVSS VL: DIQMTQSPSSLSASVGDRVTITCRASQGIRNDLGWYQQKPGKAPKRLIYSASSLQSGVPSRFGGSGSGTEFTLTISSLQPEDFATYYCLQHNSYPWTFGQGTKVEIK | – | 0.05 | 0 | 0.01 | 0 | no binding (tested: <9 RU at 500 nM peptide) | 0 | – | – | 1 | no binding (tested: <9 RU at 500 nM peptide) | 0.03 | no binding (tested: <9 RU at 500 nM peptide) | –
6 | H4H15369P2 (antibody, human IgG4, V domains shown, H4H prefix: human IgG4 Fc) VH: EVQLVESGGGLVQPGGSLRLSCVGTGFTFSNYAMSWVRQAPGKGLEWVSGISGRSSGTFYADSVKGRFTISRDNSQNTLYLQMNSLGAEDTAVYYCAKVSRYNWDYVPFDFWGQGTLVTVSS VL: not shown | – | 0.14 | 0 | 0.17 | 0 | no binding (tested: <9 RU at 500 nM peptide) | 0 | – | – | 0 | no binding (tested: <9 RU at 500 nM peptide) | 0.01 | no binding (tested: <9 RU at 500 nM peptide) | –
